According to patent publication US12043658B2, “Conjugate comprising an active MMP-9-binding peptide” (Daiichi Sankyo Company, Limited, priority 2017, dated 2024):

Assays:
active hMMP-9(cat)_M422I = biological target: T1, active hMMP-9(cat)_M422I (Homo sapiens, UniProt P14780, M422I); assay: Inhibition of human MMP-9 mutant M422I; format: biochemical
T1 construct: of the enzyme active domain (Phe107-Pro449) were constructed; His tag (before the propeptide) (N, cleaved yes); made in house; host or cells: FreeStyle 293F
T1 sequence (P14780 107-449 M422I): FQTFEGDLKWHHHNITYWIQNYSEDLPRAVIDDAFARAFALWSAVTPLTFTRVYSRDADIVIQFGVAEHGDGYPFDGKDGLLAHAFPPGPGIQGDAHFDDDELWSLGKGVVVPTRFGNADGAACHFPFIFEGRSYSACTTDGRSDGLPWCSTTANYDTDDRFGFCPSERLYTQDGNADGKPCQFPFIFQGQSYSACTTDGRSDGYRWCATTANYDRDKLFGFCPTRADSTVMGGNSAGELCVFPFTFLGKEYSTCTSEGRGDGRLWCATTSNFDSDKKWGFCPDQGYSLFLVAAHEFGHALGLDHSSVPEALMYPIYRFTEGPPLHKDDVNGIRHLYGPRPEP
Method: (§1) The substrate peptide MOCAc-KPLGL-A2pr(Dnp)-AR-NH2 (SEQ ID NO: 30 (FIG. 46)) (PEPTIDE […], INC.; 3226-v) was dissolved in water to 1 mM, then diluted with an assay buffer (50 mM Tris-HCl, 200 mM NaCl, 2 mM CaCl2, pH7.5) and used at the final concentration of 10 μM. 50 μl each of the active hMMP-9(cat) diluted with the assay buffer or the active hMMP-9(cat)_XnnnY and the active MMP-9-binding peptide or sc-311438 (Santa Cruz Biotechnology, Inc.) were mixed, and reacted at 37° C. for 1 hour. Then, 100 μl of the substrate diluted with the assay buffer was added, and fluorescence signals (excitation 328 nm/emission 393 nm) were measured with Enspire (PerkinElmer, Inc.). The final concentrations of the active hMMP-9(cat) and the active hMMP-9(cat)_XnnnY were at 1 nM, and the final concentrations of the active MMP-9-binding peptide and sc-311438 were at 0.5 to 330 nM. For reactions and measurements, a ProteoSave™ SS96F black plate (Sumitomo Bakelite Co., Ltd.) was used.
(§2) The 50% inhibitory concentration (IC50) of each binding peptide was calculated using GraphPad Prism (version 5.0; GraphPad Software), by calculating the substrate peptide degradation rate of the active MMP-9-binding peptide at each concentration, and taking the degradation rate at an inhibitor concentration of 0 nM as 100% (FIGS. 54(A) and 54(B)). […]

active hMMP-9(cat)_Q199G = biological target: T2, active hMMP-9(cat)_Q199G (Homo sapiens, UniProt P14780, Q199G); assay: Inhibition of human MMP-9 mutant Q199G; format: biochemical
T2 construct: of the enzyme active domain (Phe107-Pro449) were constructed; His tag (before the propeptide) (N, cleaved yes); made in house; host or cells: FreeStyle 293F
T2 sequence (P14780 107-449 Q199G): as the sequence (P14780 107-449 M422I) above, with Q93G, I316M counted along it
Method: as §1, §2

active hMMP-9(cat)_V398A = biological target: T3, active hMMP-9(cat)_V398A (Homo sapiens, UniProt P14780, V398A); assay: Inhibition of human MMP-9 mutant V398A; format: biochemical
T3 construct: of the enzyme active domain (Phe107-Pro449) were constructed; His tag (before the propeptide) (N, cleaved yes); made in house; host or cells: FreeStyle 293F
T3 sequence (P14780 107-449 V398A): as the sequence (P14780 107-449 M422I) above, with V292A, I316M counted along it
Method: as §1, §2

active hMMP-9(cat)_Y420A = biological target: T4, active hMMP-9(cat)_Y420A (Homo sapiens, UniProt P14780, Y420A); assay: Inhibition of human MMP-9 mutant Y420A; format: biochemical
T4 construct: of the enzyme active domain (Phe107-Pro449) were constructed; His tag (before the propeptide) (N, cleaved yes); made in house; host or cells: FreeStyle 293F
T4 sequence (P14780 107-449 Y420A): as the sequence (P14780 107-449 M422I) above, with Y314A, I316M counted along it
Method: as §1, §2

active hMMP-9(cat)_F110A = biological target: T5, active hMMP-9(cat)_F110A (Homo sapiens, UniProt P14780, F110A); assay: Inhibition of human MMP-9 mutant F110A; format: biochemical
T5 construct: of the enzyme active domain (Phe107-Pro449) were constructed; His tag (before the propeptide) (N, cleaved yes); made in house; host or cells: FreeStyle 293F
T5 sequence (P14780 107-449 F110A): as the sequence (P14780 107-449 M422I) above, with F4A, I316M counted along it
Method: as §1, §2

active hMMP-9(cat)_Y393A = biological target: T6, active hMMP-9(cat)_Y393A (Homo sapiens, UniProt P14780, Y393A); assay: Inhibition of human MMP-9 mutant Y393A; format: biochemical
T6 construct: of the enzyme active domain (Phe107-Pro449) were constructed; His tag (before the propeptide) (N, cleaved yes); made in house; host or cells: FreeStyle 293F
T6 sequence (P14780 107-449 Y393A): as the sequence (P14780 107-449 M422I) above, with Y287A, I316M counted along it
Method: as §1, §2

active hMMP-9(cat)_F192A = biological target: T7, active hMMP-9(cat)_F192A (Homo sapiens, UniProt P14780, F192A); assay: Inhibition of human MMP-9 mutant F192A; format: biochemical
T7 construct: of the enzyme active domain (Phe107-Pro449) were constructed; His tag (before the propeptide) (N, cleaved yes); made in house; host or cells: FreeStyle 293F
T7 sequence (P14780 107-449 F192A): as the sequence (P14780 107-449 M422I) above, with F86A, I316M counted along it
Method: as §1, §2

active hMMP-9(cat)_L397A = biological target: T8, active hMMP-9(cat)_L397A (Homo sapiens, UniProt P14780, L397A); assay: Inhibition of human MMP-9 mutant L397A; format: biochemical
T8 construct: of the enzyme active domain (Phe107-Pro449) were constructed; His tag (before the propeptide) (N, cleaved yes); made in house; host or cells: FreeStyle 293F
T8 sequence (P14780 107-449 L397A): as the sequence (P14780 107-449 M422I) above, with L291A, I316M counted along it
Method: as §1, §2

[1] = biological target: active human MMP-9 enzyme active domain (Homo sapiens, UniProt P14780); assay: Size exclusion chromatography binding to active hMMP-9(cat)_His6; set-up: an enzyme active domain (Phe107-Pro449) and a His tag; made in house; host or cells: FreeStyle 293F; details: 25 μM enzyme, 75 μM inhibitor
active human MMP-9 enzyme active domain, sequence (P14780 107-449): as the sequence (P14780 107-449 M422I) above, with I316M counted along it
Method: (§3) With M91005 and M91011 prepared in (1-2), active hMMP-9(cat)_His6 prepared in (2-1-4), and hMMP-9(cat)_E402Q_His6 prepared in (11-3), the binding activity was evaluated by size exclusion chromatography. 25 μM active hMMP-9(cat)_His6 or hMMP-9(cat)_E402Q_His6 and 75 μM active MMP-9-binding peptide or hTIMP-1 (in-house preparation) were mixed, and reacted at 4° C. for 1 hour. After the reaction, 10 μl of the reaction solution was analyzed by size exclusion chromatography. The chromatographic conditions were as follows.
(§4) Detection: Absorbance (280 nm)
(§5) When only active hMMP-9(cat)_His6 was analyzed, the peak of active hMMP-9(cat)_His6 was detected at a retention time of 7.0 minutes (FIG. 53(A)). When a mixture reaction solution of active hMMP-9(cat)_His6 and hTIMP-1 or active MMP-9-binding peptides M91005 or M91011 was analyzed, the retention time of the peak of active hMMP-9(cat)_His6 was shifted to the high molecular weight side (FIG. 53(A)). […] When only human MMP-9(cat)_E402Q_His6 was analyzed, the peak of hMMP-9(cat)_E402Q_His6 was detected at a retention time of 7.1 minutes (FIG. 53(B)). When a mixed reaction solution of human MMP-9(cat)_E402Q_His6 and hTIMP-1 was analyzed, the retention time of the peak of hMMP-9(cat)_E402Q_His6 was shifted to the high molecular weight side (FIG. 53(B)). […] In contrast, when a mixture reaction solution of hMMP-9(cat)_E402Q_His6 and the active MMP-9-binding peptide M91005 or M91011 was analyzed, the retention time of the peak of the hMMP-9(cat)_E402Q_His6 was not changed (FIG. 53(B)). It should be noted that when only hTIMP-1 or the active MMP-9-binding peptides M91005, M91011 was analyzed, the peak of hTIMP-1 was detected at a retention time of 7.3 minutes, the peak of the active MMP-9-binding peptide M91005 was detected at a retention time of 8.2 minutes, and the peak of the active MMP-9-binding peptide M91011 was detected at a retention time of 8.1 minutes (FIG. 53(C)).

active hMMP-9(cat)_L187A = biological target: T9, active hMMP-9(cat)_L187A (Homo sapiens, UniProt P14780, L187A); assay: Inhibition of human MMP-9 mutant L187A; format: biochemical
T9 construct: of the enzyme active domain (Phe107-Pro449) were constructed; His tag (before the propeptide) (N, cleaved yes); made in house; host or cells: FreeStyle 293F
T9 sequence (P14780 107-449 L187A): as the sequence (P14780 107-449 M422I) above, with L81A, I316M counted along it
Method: as §1, §2

[2] = biological target: T10, wild-type active hMMP-9(cat) (Homo sapiens, UniProt P14780); assay: Inhibition of wild-type active hMMP-9(cat), substrate peptide; format: biochemical; details: wild-type active hMMP-9(cat) 1 nM, substrate peptide 10 μM
T10 construct: and an enzyme active domain (Phe107-Pro449) was constructed; His tag (before the propeptide) (N, cleaved yes); made in house; host or cells: FreeStyle 293F
T10 sequence (P14780 107-449): as the sequence (P14780 107-449 M422I) above, with I316M counted along it
Method: as §1, §2

active hMMP-9(cat)_Y423A = biological target: T11, active hMMP-9(cat)_Y423A (Homo sapiens, UniProt P14780, Y423A); assay: Inhibition of human MMP-9 mutant Y423A; format: biochemical
T11 construct: of the enzyme active domain (Phe107-Pro449) were constructed; His tag (ahead of the propeptide in the precursor) (N, cleaved yes); made in house; host or cells: FreeStyle 293F
T11 sequence (P14780 107-449 Y423A): as the sequence (P14780 107-449 M422I) above, with I316M, Y317A counted along it
Method: as §1, §2

active hMMP-9(cat)_Y179A = biological target: T12, active hMMP-9(cat)_Y179A (Homo sapiens, UniProt P14780, Y179A); assay: Inhibition of human MMP-9 mutant Y179A; format: biochemical
T12 construct: of the enzyme active domain (Phe107-Pro449) were constructed; His tag (before the propeptide) (N, cleaved yes); made in house; host or cells: FreeStyle 293F
T12 sequence (P14780 107-449 Y179A): as the sequence (P14780 107-449 M422I) above, with Y73A, I316M counted along it
Method: as §1, §2

[3] = biological target: T13, human MMP-9 enzyme active domain E402Q mutant (Homo sapiens, UniProt P14780, E402Q); assay: Size exclusion chromatography binding to hMMP-9(cat)_E402Q_His6; details: 25 μM enzyme, 75 μM inhibitor
T13 construct: an enzyme active domain E402Q mutant (Phe107-Pro449, E402Q) and a His tag; made in house; host or cells: FreeStyle 293F
T13 sequence (P14780 107-449 E402Q): as the sequence (P14780 107-449 M422I) above, with E296Q, I316M counted along it
Method: as §3, §4, §5

active hMMP-9(cat)_R424T = biological target: T14, active hMMP-9(cat)_R424T (Homo sapiens, UniProt P14780, R424T); assay: Inhibition of human MMP-9 mutant R424T; format: biochemical
T14 construct: of the enzyme active domain (Phe107-Pro449) were constructed; His tag (ahead of the propeptide in the precursor) (N, cleaved yes); made in house; host or cells: FreeStyle 293F
T14 sequence (P14780 107-449 R424T): as the sequence (P14780 107-449 M422I) above, with I316M, R318T counted along it
Method: as §1, §2

active hMMP-9(cat)_D185A = biological target: T15, active hMMP-9(cat)_D185A (Homo sapiens, UniProt P14780, D185A); assay: Inhibition of human MMP-9 mutant D185A; format: biochemical
T15 construct: of the enzyme active domain (Phe107-Pro449) were constructed; His tag (before the propeptide) (N, cleaved yes); made in house; host or cells: FreeStyle 293F
T15 sequence (P14780 107-449 D185A): as the sequence (P14780 107-449 M422I) above, with D79A, I316M counted along it
Method: as §1, §2

active hMMP-9(cat)_P193A = biological target: T16, active hMMP-9(cat)_P193A (Homo sapiens, UniProt P14780, P193A); assay: Inhibition of human MMP-9 mutant P193A; format: biochemical
T16 construct: of the enzyme active domain (Phe107-Pro449) were constructed; His tag (before the propeptide) (N, cleaved yes); made in house; host or cells: FreeStyle 293F
T16 sequence (P14780 107-449 P193A): as the sequence (P14780 107-449 M422I) above, with P87A, I316M counted along it
Method: as §1, §2

Molecule | IC50 increase compared to wild type (active hMMP-9(cat)_M422I) | IC50 increase compared to wild type (active hMMP-9(cat)_Q199G) | IC50 increase compared to wild type (active hMMP-9(cat)_V398A) | IC50 increase compared to wild type (active hMMP-9(cat)_Y420A) | IC50 increase compared to wild type (active hMMP-9(cat)_F110A) | IC50 increase compared to wild type (active hMMP-9(cat)_Y393A) | IC50 increase compared to wild type (active hMMP-9(cat)_F192A) | IC50 increase compared to wild type (active hMMP-9(cat)_L397A) | binding to active human MMP-9 enzyme active domain (peak shift) [1] | IC50 increase compared to wild type (active hMMP-9(cat)_L187A) | IC50 [2] | IC50 increase compared to wild type (active hMMP-9(cat)_Y423A) | IC50 increase compared to wild type (active hMMP-9(cat)_Y179A) | binding to human MMP-9 enzyme active domain E402Q mutant (peak shift) [3] | IC50 increase compared to wild type (active hMMP-9(cat)_R424T) | IC50 increase compared to wild type (active hMMP-9(cat)_D185A) | IC50 increase compared to wild type (active hMMP-9(cat)_P193A)
M91005: SPINK2 mutant active MMP-9-binding peptide, SEQ ID NO: 5 (FIG. 19) (protein, binder) DPQFGLFSKYRTPNCRKRGGPSCQMSYNPVCGSDMSTYANECTLCMKIREGGHNIKIIRNGPC | 2.6 times | 2.3 times | 2.2 times | 3.1 times | 4.0 times | 2.7 times | > 57.8 times | 2.2 times | bind to the active human MMP-9 enzyme active domain | 6.7 times | 17 ± 7 nM | 13.2 times | 3.2 times | do not bind to human MMP-9 enzyme active domain E402Q mutant |  |  | 
M91011: SPINK2 mutant active MMP-9-binding peptide, SEQ ID NO: 7 (FIG. 21) (protein, binder) DPQFGLFSKYRTPNCMMYKYAQCSHKSQPVCGSDMSTYANECTLCMKIREGGHNIKIIRNGPC | 2.6 times |  | 4.8 times |  |  | > 57.6 times | 5.0 times | 3.5 times | bind to the active human MMP-9 enzyme active domain |  | 17 ± 5 nM | > 20.0 times | 4.9 times | do not bind to human MMP-9 enzyme active domain E402Q mutant | 2.7 times | 19.0 times | 6.5 times
